Data reported in paper PMC5423654.

Substrate: S
Test: UV-vis quinone reduction, steady-state kinetics
Format: biochemical, Staphylococcus aureus
Conditions: pH 8.0; 25.0 °C

B1: S. aureus SQR (sulfide:quinone oxidoreductase) (Staphylococcus aureus subsp. aureus NCTC 8325) (protein)
chain: MNKHYQIVIIGGGTAGVTVASRLLRKNQNLKEKIAIIDPADHHYYQPLWTLVGAGVSSLKSSRKDMESVIPEGANWIKQAVSSFQPENNSVILGDNTVVYYDFLVVAPGLQINWSSIKGLKENIGKNGVCSNYSPDYVNETWNQISNFKQGNAIFTHPNTPIKCGGAPMKIMYLAEDYFRKHKIRSNANVIYATPKDALFDVGKYNKELERIVEERNITVNYNYNLVEIDGDKKVATFEHIKAYDRKTISYDMLHVTPPMGPLDVVKESTLSDSEGWVDVNPTTLQHKSYSNVFALGDASNVPTSKTGAAIRKQAPIVANNLLQVMNNQMLTHHYDGYTSCPIVTGYNRLILAEFDYNKNTKETMPFNQAKERRSMYIFKKDLLPKMYWYGMLKGLI
- Km: 22 ± 7 µM
- Vmax: 0.41 µmol/min/mg
- kcat/Km: 14100 ± 4600 M⁻¹ s⁻¹
